{"source": "patent US7867500B2", "about": "“Cofactor that modulates steroid receptor activities” (The United States of America as represented by the …, priority 2004, dated 2011)", "format_in_all_cases": "cell-based", "key": {"[1]": {"target": "T1, CBP (Homo sapiens, UniProt Q92793)", "T1 construct": "expressed in transfected cells; host or cells: CV-1 (the same two-hybrid assay)", "T1 sequence (Q92793 whole entry)": "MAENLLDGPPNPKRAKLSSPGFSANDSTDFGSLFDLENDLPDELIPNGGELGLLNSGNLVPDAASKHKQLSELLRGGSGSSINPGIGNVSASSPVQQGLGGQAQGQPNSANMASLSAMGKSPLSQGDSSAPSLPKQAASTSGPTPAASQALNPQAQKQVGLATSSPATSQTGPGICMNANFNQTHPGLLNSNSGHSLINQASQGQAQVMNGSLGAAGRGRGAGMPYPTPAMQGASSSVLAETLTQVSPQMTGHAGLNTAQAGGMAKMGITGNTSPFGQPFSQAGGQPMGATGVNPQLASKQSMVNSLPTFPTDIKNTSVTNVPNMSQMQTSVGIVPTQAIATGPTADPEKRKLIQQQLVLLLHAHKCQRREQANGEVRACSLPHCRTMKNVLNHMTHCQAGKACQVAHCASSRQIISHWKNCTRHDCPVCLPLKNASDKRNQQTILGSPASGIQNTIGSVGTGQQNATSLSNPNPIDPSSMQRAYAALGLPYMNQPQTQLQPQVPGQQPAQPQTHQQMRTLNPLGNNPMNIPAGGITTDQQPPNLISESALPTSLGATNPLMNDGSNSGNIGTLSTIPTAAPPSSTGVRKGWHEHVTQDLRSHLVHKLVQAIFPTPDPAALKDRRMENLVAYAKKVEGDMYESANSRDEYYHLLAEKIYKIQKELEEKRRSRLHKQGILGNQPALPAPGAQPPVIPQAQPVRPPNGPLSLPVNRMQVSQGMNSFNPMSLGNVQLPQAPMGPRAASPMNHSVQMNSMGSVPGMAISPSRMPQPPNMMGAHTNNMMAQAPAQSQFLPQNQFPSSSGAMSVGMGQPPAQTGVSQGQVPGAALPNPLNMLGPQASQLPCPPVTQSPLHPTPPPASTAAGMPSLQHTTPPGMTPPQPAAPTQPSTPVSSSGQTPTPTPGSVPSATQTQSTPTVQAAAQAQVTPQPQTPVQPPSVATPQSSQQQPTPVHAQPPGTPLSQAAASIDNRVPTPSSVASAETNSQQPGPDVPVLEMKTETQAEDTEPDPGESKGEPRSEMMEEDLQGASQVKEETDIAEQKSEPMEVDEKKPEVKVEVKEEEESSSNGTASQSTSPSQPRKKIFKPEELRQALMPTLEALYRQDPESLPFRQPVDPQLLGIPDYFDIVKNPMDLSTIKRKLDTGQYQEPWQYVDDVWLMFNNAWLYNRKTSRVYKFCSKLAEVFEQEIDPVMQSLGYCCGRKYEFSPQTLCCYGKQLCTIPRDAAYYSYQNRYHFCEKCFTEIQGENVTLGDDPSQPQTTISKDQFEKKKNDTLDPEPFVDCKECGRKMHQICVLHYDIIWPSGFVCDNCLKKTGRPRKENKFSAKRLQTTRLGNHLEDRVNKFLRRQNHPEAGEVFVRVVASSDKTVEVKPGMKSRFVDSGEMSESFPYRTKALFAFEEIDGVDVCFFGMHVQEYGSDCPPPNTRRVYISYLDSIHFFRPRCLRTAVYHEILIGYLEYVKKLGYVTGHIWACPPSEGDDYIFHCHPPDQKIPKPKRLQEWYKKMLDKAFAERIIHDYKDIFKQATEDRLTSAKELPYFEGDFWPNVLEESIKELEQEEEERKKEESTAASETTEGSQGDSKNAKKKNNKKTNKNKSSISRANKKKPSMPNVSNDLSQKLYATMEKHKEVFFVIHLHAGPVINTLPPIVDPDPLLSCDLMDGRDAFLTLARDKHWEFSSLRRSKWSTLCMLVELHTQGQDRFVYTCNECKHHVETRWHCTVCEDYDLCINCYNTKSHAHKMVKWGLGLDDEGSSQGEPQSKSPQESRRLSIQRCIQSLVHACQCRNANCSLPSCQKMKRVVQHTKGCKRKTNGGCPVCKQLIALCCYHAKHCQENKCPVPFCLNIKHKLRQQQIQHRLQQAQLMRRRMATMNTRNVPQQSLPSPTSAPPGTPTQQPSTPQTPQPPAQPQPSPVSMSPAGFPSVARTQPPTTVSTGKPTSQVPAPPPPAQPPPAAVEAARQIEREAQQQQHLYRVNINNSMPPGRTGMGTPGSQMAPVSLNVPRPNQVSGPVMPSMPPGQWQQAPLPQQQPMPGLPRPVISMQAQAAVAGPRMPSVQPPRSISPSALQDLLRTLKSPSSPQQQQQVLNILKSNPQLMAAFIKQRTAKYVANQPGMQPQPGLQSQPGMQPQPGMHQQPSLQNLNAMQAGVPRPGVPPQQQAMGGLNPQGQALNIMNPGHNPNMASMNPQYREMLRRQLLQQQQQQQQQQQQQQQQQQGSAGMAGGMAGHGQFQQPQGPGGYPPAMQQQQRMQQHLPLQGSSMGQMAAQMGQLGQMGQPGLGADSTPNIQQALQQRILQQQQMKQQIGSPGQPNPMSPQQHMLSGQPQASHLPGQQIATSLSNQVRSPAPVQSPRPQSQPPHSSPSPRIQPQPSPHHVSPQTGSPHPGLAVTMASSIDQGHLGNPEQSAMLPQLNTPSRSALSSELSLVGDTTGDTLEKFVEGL", "experiment": "Mammalian two-hybrid assay with CBP", "settings": "data not shown", "method": "These assays were conducted as described (He et al., 2002). In particular, the recommended procedure for the Mammalian Matchmaker two-hybrid assay kit (Clontech) was modified slightly by changing from a chloramphenicol acetyltransferase reporter to a Luciferase Reporter pFRLuc (Stratagene), which is under the control of five repeats of the upstream activating sequence for the binding of GAL4."}, "[2]": {"target": "T2, SRC-1 (1139C) (Homo sapiens, UniProt Q15788)", "T2 construct": "expressed in transfected cells; host or cells: CV-1", "T2 sequence (Q15788 1139-1441 limits assumed)": "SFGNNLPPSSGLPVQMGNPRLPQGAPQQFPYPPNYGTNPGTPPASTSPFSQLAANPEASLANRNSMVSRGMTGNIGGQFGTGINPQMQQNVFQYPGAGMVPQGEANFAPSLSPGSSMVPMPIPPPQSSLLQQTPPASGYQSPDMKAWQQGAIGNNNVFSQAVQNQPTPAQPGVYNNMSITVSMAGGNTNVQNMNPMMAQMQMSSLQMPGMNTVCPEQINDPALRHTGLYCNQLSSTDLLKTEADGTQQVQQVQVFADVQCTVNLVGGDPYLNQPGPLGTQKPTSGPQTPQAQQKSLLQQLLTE", "T2 sequence (Q6EMB2 627-838 partner limits assumed)": "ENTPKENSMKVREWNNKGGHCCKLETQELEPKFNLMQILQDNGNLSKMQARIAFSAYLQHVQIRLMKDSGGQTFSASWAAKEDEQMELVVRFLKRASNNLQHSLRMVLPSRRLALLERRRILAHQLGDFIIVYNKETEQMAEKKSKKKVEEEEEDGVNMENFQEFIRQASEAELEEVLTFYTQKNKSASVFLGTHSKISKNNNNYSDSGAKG", "experiment": "Mammalian two-hybrid assay in CV-1 cells with SRC-1 C-terminal fragment", "excerpt": "FIG. 2A-2C illustrate the isolation and characterization of the partial clone of the protein that binds to TIF2.4. […] Five clones were obtained but only two (clones I and V) contained a protein that was needed for colony growth in the presence of the pSos/TIF2.4 fusion protein. After initial screening, only clone I (also named 6-6CL1) was selected for further investigation. FIG. 2B and FIG. 2C illustrate the selectivity of 6-6CL1 interactions with TIF2.4 in mammalian two-hybrid assays. Triplicate samples of CV-1 cells in 24-well plates were transiently transfected with the indicated GAL-DBD and VP16-AD plasmids along with the GAL4-regulated reporter, pFRLuc. The relative luciferase activity, normalized for the activity of the internal Renilla control, was determined and plotted as the average±S.D. The much lower activity of GAL/TIF2.4m123 was previously shown not to be due to unequal levels of protein expression (He et al., 2002). Similar results were obtained in three additional experiments. […] Triplicate samples of CV-1 cells in 24-well plates were analyzed as in (B&C) after being transiently transfected with GAL±6-6CL1 constructs and pFRLuc reporter along with VP16 chimeras of SRC-1 (FIG. 2D) or TIF2 (FIG. 2E) segments. Similar results for SRC-1 were obtained in two additional experiments (ND=not determined). […]"}, "[3]": {"tested_on": "GR repression of an AP-1 induced gene", "experiment": "GR-mediated repression of PMA-induced AP-1/Luc reporter in U2OS.rGR cells", "settings": "25 μM PMA, no Dex", "method": "FIG. 5A-F illustrate STAMP modulation of GR-mediated repression. […] U2OS.rGR cells were transiently transfected with ±TIF2 (20 ng)±STAMP (100 ng) plasmids, AP-1/Luc reporter (20 ng), and Renilla control (10 ng) plasmid. The cells were induced with ethanol (EtOH) or 25 μM PMA±0.1 μM Dex. […] The average values±S.E.M. of four experiments are plotted. The numbers in parentheses above the bars labeled “PMA+Dex” represent the average fold repression caused by Dex± the various factors.\nFIG. 5B illustrates that functional TIF2 is needed for optimal STAMP activity. U2OS.rGR cells were transiently transfected and processed as described for FIG. 5A but less STAMP (50 ng) was used and two concentrations of TIF2 or TIF2m123 (10 and 20 ng) were employed. The average values±S.E.M. of 4-5 experiments are plotted. An asterisk indicates a significant difference (P≦0.031) between samples containing equal amounts of TIF2 and TIF2m123.\nRogatsky et al. have reported that TIF2 augments GR repression of an AP-1 induced gene. […] The TIF2 domain identified as having TIF2 activity in GR repression was the same as used to isolate STAMP. In order to determine if STAMP was active in GR-mediated gene repression as well as induction, the ability of STAMP to increase the repressive activity of GR in the AP-1 responsive whole cell bioassay system was assessed using U2OS.rGR cells."}}, "data": [{"molecule": "6-6CL1: STAMP fragment amino acids 623-834, coactivator interaction domain (CID) (protein) ENTPKENSMKVREWNNKGGHCCKLETQELEPKFNLMQILQDNGNLSKMQARIAFSAYLQHVQIRLMKDSGGQTFSASWAAKEDEQMELVVRFLKRASNNLQHSLRMVLPSRRLALLERRRILAHQLGDFIIVYNKETEQMAEKKSKKKVEEEEEDGVNMENFQEFIRQASEAELEEVLTFYTQKNKSASVFLGTHSKISKNNNNYSDSGAKG", "values": [{"measurement": "association with CBP", "setting": "[1]", "result": "negligible association"}, {"measurement": "interaction with C-terminal portion of SRC-1 (1139C)", "setting": "[2]", "result": "strongly interacted"}]}, {"molecule": "STAMP: SRC-1 and TIF2 Associated Modulatory Protein, 1277 amino acid human polypeptide, expressed from transfected plasmid (protein) MARDLEETASSSEDEEVISQEDHPCIMWTGGCRRIPVLVFHADAILTKDNNIRVIGERYHLSYKIVRTDSRLVRSILTAHGFHEVHPSSTDYNLMWTGSHLKPFLLRTLSEAQKVNHFPRSYELTRKDRLYKNIIRMQHTHGFKVFHILPQTFLLPAEYAEFCNSYSKDRGPWIVKPVASSRGRGVYLINNPNQISLEENILVSRYINNPLLIDDFKFDVRLYVLVTSYDPLVIYLYEEGLARFATVRYDQGAKNIRNQFMHLTNYSVNKKSGDYVSCDDPEVEDYGNKWSMSAMLRYLKQEGRDTTALMAHVEDLIIKTIISAELAIATACKTFVPHRSSCFELYGFDVLIDSTLKPWLLEVNLSPSLACDAPLDLKIKASMISDMFTVVGFVCQDPAQRASTRPIYPTFESSRRNPFQKPQRCRPLSASDAEMKNLVGSAREKGPGKLGGSVLGLSMEEIKVLRRVKEENDRRGGFIRIFPTSETWEIYGSYLEHKTSMNYMLATRLFQDRMTADGAPELKIESLNSKAKLHAALYERKLLSLEVRKRRRRSSRLRAMRPKYPVITQPAEMNVKTETESEEEEEVALDNEDEEQEASQEESAGFLRENQAKYTPSLTALVENTPKENSMKVREWNNKGGHCCKLETQELEPKFNLMQILQDNGNLSKMQARIAFSAYLQHVQIRLMKDSGGQTFSASWAAKEDEQMELVVRFLKRASNNLQHSLRMVLPSRRLALLERRRILAHQLGDFIIVYNKETEQMAEKKSKKKVEEEEEDGVNMENFQEFIRQASEAELEEVLTFYTQKNKSASVFLGTHSKISKNNNNYSDSGAKGDHPETIMEEVKIKPPKQQQTTEIHSDKLSRFTTSAEKEAKLVYSNSSSGPTATLQKIPNTHLSSVTTSDLSPGPCHHSSLSQIPSAIPSMPHQPTILLNTVSASASPCLHPGAQNIPSPTGLPRCRSGSHTIGPFSSFQSAAHIYSQKLSRPSSAKAGSCYLNKHHSGIAKTQKEGEDASLYSKRYNQSMVTAELQRLAEKQAARQYSPSSHINLLTQQVTNLNLATGIINRSSASAPPTLRPIISPSGPTWSTQSDPQAPENHSSSPGSRSLQTGGFAWEGEVENNVYSQATGVVPQHKYHPTAGSYQLQFALQQLEQQKLQSRQLLDQSRARHQAIFGSQTLPNSNLWTMNNGAGCRISSATASGQKPTTLPQKVVPPPSSCASLVPKPPPNHEQVLRRATSQKASKGSSAEGQLNGLQSSLNPAASVPITSSTDPAHTKI", "values": [{"measurement": "fold induction by PMA", "setting": "[3]", "result": "unchanged"}]}]}
